Experimental data taken from patent publication US20180355045A1 (LIMITED LIABILITY COMPANY ONCOMAX LLC ONCOMAX, published 2018).

Tests used:
[1] = molecular target: T1, recombinant FGFR1 antigen (on the SPR chip; PA-269#37 or Sino Biologicals #10616-H08H, not told which) (human, UniProt P11362-7 22-374); assay: SPR (BIAcore T100), FGFR1 on a CM5 chip, antibody in flow, 1:1 model
T1 sequence (looked up): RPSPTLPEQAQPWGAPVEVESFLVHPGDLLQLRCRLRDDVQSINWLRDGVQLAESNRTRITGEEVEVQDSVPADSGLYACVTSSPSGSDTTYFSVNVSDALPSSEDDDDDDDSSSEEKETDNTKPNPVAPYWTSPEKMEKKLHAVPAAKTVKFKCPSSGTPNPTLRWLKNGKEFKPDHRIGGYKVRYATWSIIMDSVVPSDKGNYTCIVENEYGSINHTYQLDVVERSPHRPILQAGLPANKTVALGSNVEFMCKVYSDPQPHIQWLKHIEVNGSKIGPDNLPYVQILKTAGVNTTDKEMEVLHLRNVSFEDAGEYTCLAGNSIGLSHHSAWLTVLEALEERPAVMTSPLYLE
Experimental: Analysis of surface plasmon resonance was performed using the BIAcore T100 System Operation Kit (BIAcore; GE Healthcare). […] Different antibody variants were diluted in HBS-P buffer (10 mmol/L HEPES, pH 7.4, 0.15 mol/L NaCl and 0.05% surfactant P20) and passed over the sensor chip surface (25 μl/min). The sensory surface was washed with HBS-P buffer, and then regenerated using 10 mmol/L glycine-HCl (pH 2). Different antibody concentrations were tested ([…]). Different cyclic kinetic properties were determined, and the results were analyzed using the 1:1 (Langmuir) binding model, inclusive of the association rate constant (Kₒₙ), dissociation rate constant (Koff) and dissociation constant (Kd) (Biacore, GE Healthcare).

[2] = molecular target: T2, fibroblast growth factor receptor 1 (FGFR1), preparation not stated (UniProt P11362 22-376, limits assumed); assay: method not stated; antibody from the CHO-OM8-21 cell line; antibody from the CHO-OM8-21 cell line
T2 construct: also called FGF receptor; FGFR1 receptor
T2 sequence (looked up): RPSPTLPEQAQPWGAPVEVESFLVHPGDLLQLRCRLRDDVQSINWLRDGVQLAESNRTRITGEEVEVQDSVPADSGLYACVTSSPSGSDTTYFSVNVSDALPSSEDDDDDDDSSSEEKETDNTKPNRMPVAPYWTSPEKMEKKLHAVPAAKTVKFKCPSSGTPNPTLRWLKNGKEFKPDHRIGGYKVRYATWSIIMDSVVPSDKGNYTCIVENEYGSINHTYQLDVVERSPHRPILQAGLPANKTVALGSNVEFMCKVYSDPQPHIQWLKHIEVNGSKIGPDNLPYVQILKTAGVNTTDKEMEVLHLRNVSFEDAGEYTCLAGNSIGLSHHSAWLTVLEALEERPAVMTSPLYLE

B1: humanized anti-FGFR1 antibody OM-RCA-01 (VH3/VL5) (antibody, human IgG1, kappa, V domains shown)
VH: QVQLQESGPGLVKPSQTLSLTCTVSGYSITSDYAWSWIRQHPGKGLEWIGYITYSGTTYYNPSLKSRVTISVDTSKNQFSLKLSSVTAADTAVYYCARDGNYFDYWGQGTLVTVSS
VL: DIQLTQSPSFLSASVGDRVTITCRASSSVSSSYLHWYQQKPGKAPKLLIYRTSTLQSGVPSRFSGSGSGTEFTLTISSLQPEDFATYYCQQWSGYPLTFGGGTKVEIKR
notes: Human IgG1 (IGHG1*03) / kappa; also called VH3A/L5; OM1
- Kd [1]: 1.59 nM
- Kd [2]: 9.27 nM
